Source: publication doi:10.1101/2023.05.02.539157, “Toxic anti-phage defense proteins inhibited by intragenic antitoxin proteins” (bioRxiv, 2023)

Key:
[1] = target: T1, RpnAL (full-length RpnA, wild type, in the native RpnALS complex) (E. coli, UniProt P31667 1-292); test: SEC-MALS; multi-angle light scattering coupled with size exclusion chromatography of purified RpnAS and of the purified RpnALS complex; conditions: both partners purified
T1 construct: source: E. coli, WT rpnA gene in an overexpression vector, C-terminally tagged intein fusion, purified together with RpnAS
T1 sequence (looked up): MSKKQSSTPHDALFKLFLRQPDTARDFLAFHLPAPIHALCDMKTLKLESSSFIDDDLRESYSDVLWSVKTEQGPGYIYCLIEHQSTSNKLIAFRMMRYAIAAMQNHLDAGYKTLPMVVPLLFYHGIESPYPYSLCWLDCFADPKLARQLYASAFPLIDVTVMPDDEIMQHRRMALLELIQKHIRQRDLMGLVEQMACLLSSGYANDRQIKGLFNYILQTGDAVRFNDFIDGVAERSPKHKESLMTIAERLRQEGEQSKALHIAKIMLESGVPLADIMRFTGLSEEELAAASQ

[2] = target: the molecule itself; test: as above
[3] = target: T2, RpnAL* (RpnA_(K240R+E241D+M244L)) (E. coli, UniProt P31667 1-292, K240R | E241D | M244L); test: SEC; Superdex 200 column; individually purified proteins alone and mixed, and the native co-purified RpnALS complex; peak fractions checked by SDS-PAGE; conditions: both partners purified
T2 construct: source: E. coli, overexpressed as C-terminally tagged intein fusion protein, purified
T2 sequence (looked up): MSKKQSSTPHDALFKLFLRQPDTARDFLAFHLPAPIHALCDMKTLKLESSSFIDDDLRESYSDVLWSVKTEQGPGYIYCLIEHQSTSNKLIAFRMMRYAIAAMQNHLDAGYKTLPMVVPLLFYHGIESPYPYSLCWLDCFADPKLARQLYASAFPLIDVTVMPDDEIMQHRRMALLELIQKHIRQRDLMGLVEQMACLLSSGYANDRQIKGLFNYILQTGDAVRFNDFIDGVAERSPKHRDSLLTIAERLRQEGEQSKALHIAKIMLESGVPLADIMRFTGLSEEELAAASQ

B1: RpnAS (natural protein, E. coli, UniProt P31667 244-292, looked up)
chain: MTIAERLRQEGEQSKALHIAKIMLESGVPLADIMRFTGLSEEELAAASQ
notes: also called RpnS of RpnA; small C-terminal protein of RpnA
**Q.** For B1, which “stoichiometry N” value [1] is on record?
**A.** The value was 1 RpnAS per RpnAL (2:2).

**Q.** And the “stoichiometry N” value [2]?
**A.** Its value is 2.

**Q.** Does B1 bind [3]?
**A.** Result: binds
